Laboratory results reported in the supplement of paper PMC6379048.

Key:
Assay in all cases: Kd (EC50 corrected by depletion factor)
HSP90AB2P = HSP90AB2P (UniProt Q58FF8)
Outline: (§1)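 Over three biological replicates and two independent experiments, proteins captured on NHS-Sepharose beads carrying 5′-amino-C6 RNA oligos were quantified by label-free LC-MS/MS and normalised to the control. Capture lasted 30 min at 4°C and followed a 1 h pre-incubation at 4°C of HEK293-FT lysate (2.5 mg protein/well) with the same oligos in free form (0 nM to 30 μM). EC50 was taken from a four-parameter log-logistic fit, and Kd was EC50 corrected by a protein-dependent depletion factor.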

SYNCRIP = target: T1, SYNCRIP (UniProt O60506)
T1 sequence: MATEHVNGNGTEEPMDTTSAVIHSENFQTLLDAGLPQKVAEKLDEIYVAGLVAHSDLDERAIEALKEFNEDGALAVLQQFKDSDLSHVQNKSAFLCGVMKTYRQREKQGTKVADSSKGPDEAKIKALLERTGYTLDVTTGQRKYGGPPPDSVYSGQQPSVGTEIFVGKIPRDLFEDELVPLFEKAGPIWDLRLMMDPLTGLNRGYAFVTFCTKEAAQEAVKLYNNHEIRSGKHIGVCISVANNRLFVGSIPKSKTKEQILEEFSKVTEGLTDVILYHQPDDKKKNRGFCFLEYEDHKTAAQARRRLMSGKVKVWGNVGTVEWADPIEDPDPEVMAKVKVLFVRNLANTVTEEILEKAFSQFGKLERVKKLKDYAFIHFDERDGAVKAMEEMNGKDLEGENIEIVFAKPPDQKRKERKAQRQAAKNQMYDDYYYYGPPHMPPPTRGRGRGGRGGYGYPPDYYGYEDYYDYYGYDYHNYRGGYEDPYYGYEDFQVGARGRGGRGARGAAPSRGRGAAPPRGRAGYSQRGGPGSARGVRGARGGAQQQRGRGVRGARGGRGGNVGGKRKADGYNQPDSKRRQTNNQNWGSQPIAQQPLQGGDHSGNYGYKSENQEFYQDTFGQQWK
Outline: as §1

ANGEL2 = target: T2, ANGEL2 (UniProt Q5VTE6)
T2 sequence: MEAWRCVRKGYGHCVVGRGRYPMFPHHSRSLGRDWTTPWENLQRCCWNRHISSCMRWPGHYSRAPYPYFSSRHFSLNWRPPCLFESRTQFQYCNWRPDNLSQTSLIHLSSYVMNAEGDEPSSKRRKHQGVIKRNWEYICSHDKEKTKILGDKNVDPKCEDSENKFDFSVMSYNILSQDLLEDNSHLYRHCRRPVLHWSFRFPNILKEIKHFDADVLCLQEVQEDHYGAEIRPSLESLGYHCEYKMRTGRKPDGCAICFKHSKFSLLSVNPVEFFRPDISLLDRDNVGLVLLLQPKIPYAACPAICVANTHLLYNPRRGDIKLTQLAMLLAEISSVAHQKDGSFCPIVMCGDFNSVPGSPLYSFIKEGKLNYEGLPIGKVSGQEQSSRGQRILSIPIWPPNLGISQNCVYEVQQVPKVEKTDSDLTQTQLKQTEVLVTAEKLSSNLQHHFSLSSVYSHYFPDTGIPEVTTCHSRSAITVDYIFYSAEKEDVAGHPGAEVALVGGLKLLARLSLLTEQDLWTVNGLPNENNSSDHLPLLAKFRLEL
Outline: as §1

MRPL17 = MRPL17 (UniProt Q9NRX2)
Outline: as §1

PCBP1 = PCBP1 (UniProt Q15365)
Outline: as §1

SRSF7 = target: T3, SRSF7 (UniProt Q16629)
T3 sequence: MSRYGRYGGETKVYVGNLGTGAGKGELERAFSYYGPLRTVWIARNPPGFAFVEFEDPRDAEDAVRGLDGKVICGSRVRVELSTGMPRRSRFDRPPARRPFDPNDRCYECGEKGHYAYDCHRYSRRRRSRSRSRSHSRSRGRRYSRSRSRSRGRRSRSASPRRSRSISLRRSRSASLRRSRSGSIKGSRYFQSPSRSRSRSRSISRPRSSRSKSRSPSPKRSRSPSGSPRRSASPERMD
Outline: as §1

MRPS28 = MRPS28 (UniProt Q9Y2Q9)
Outline: as §1

Sequence of HSP90AB2P (Q58FF8 whole entry): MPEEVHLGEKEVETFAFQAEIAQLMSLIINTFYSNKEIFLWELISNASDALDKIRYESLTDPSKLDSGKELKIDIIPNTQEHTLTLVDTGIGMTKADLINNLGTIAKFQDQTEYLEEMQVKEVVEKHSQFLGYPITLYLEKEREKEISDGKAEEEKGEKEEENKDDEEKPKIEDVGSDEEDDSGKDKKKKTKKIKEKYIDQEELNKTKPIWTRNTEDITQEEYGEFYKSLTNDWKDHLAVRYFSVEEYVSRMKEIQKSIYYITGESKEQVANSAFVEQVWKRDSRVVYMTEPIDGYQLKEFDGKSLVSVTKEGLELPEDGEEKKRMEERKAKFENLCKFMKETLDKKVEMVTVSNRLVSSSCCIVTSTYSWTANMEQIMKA
Sequence of PCBP1 (Q15365 whole entry): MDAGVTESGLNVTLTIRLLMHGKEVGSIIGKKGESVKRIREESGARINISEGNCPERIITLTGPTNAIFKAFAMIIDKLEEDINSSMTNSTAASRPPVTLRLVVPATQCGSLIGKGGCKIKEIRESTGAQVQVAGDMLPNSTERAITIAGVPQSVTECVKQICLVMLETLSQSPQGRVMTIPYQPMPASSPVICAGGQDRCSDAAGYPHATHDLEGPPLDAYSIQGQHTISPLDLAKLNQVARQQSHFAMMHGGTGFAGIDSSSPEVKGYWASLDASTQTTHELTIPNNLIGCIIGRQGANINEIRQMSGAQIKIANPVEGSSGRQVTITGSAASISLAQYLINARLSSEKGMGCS

In the case of AAUAAA, the Kd (HSP90AB2P) is reported as 0.108 µM and the Kd (SYNCRIP) is reported as 0.252 µM.
Work on CUGUCCU yielded a Kd (ANGEL2) of 0.144 µM, a Kd (MRPL17) of 0.0204 µM and a Kd (PCBP1) of 1.56 µM. For the same sequence, the Kd (SRSF7) was 1 µM.
Work on UAUUUAU yielded a Kd (MRPS28) of 0.0159 µM.
